Paper PMC2191090 (The Journal of Experimental Medicine, 1993)
Where no end group is shown, it is not given here. The star is where a group is joined. Biotin = O=C1N[C@H]2[C@H](CS[C@H]2CCCCC(=O)*)N1; 22‑Å spacer = not defined here

B1: biotinylated synthetic HLA-DR alpha chain peptide 182-198 (peptide)
peptide: {Biotin-22‑Å spacer}-APSPLPETTENVVCALG
modifications: reading uncertain
B2: biotinylated synthetic invariant chain (Ii) peptide 97-120 (peptide)
peptide: {Biotin-22‑Å spacer}-LPKPPKPVSKMRMATPLLMQALPM
modifications: reading uncertain

Key:
[1] = target: HLA-DR4 (DRB1*0401) on Priess cells (human (endogenous in Priess)); experiment: flow cytometry on cells
[2] = target: HLA-DR7 (DRB1*0701) on Mann cells (human (endogenous in Mann)); experiment: flow cytometry on cells
surface-expressed HLA-DR = experiment: Specificity of peptide binding to surface-expressed HLA-DR; parameters: species or system human; conditions: amino-terminal biotin via 22-A spacer
[3] = target: HLA-DR1 (DRB1*0101) on LG-2 cells (human (endogenous in LG-2)); experiment: flow cytometry on cells
[4] = target: HLA-DR2 (DRB1*1501/DRB5*0101) on MST cells (human (endogenous in MST)); experiment: flow cytometry on cells
[5] = target: HLA-DR3 (DRB1*0301) on WT-20 cells (human (endogenous in WT-20)); experiment: flow cytometry on cells
[6] = target: HLA-DR8 (DRB1*0801) on 23.1 cells (human (endogenous in 23.1)); experiment: flow cytometry on cells

Molecule	relative mean log fluorescence [1]	relative mean log fluorescence [2]	effect of biotinylation on binding (in words) (surface-expressed HLA-DR)	relative mean log fluorescence [3]	relative mean log fluorescence [4]	relative mean log fluorescence [5]	relative mean log fluorescence [6]
biotinylated synthetic Ig kappa chain C region peptide 188-202	189	171	–	–	–	–	–
VGSDWRFLRGYHQYA [HLA-A2-1ike peptide 103-117]	–	–	interfered with the normal mode of binding	–	–	–	–
B1	189	–	–	345	148	176	172
B2	215	288	–	–	–	–	–
